According to article PMC3176765, “Mechanism of the Interaction between the Intrinsically Disordered C-Terminus of the Pro-Apoptotic ARTS Protein and the Bir3 Domain of XIAP” (PLoS ONE, 2011):
Values belong to the molecule of their own block, whether it stands above or below them. Positions of bridges follow the written chain, without caps; N, C: chain ends. Residues, ends and D or L forms follow the SMILES beside them. Chains are numbered I, II in the order given. No end group written: not given here. *: point of attachment. 5FAM = O=C1OC2(c3ccc(O)cc3Oc3cc(O)ccc32)c2ccc(C(=O)*)cc21

How the values were obtained:
[1] = target: Dimer fl-ARTS 266-274 (human); test: other fluorescence titration; Bir3 titrated into dimeric fl-ARTS 266-274; fluorescence fit to the Hill equation; apparent averaged Kd; 20 mM Hepes pH 7.4, 45 mM NaCl, 10°C
[2] = target: T1, Bir3 subunit of the XIAP (residues 252–350) (Homo sapiens, UniProt P98170); test: Fluorescence anisotropy binding of fluorescein-labeled ARTS peptides to Bir3 (1:1 binding model); conditions: Bir3 titrated into fluorescein-labeled peptide, 20 mM Hepes pH 7.4, 45 mM NaCl, 10°C, no reducing agent, fit to 1:1 binding model, nb = no binding detected
T1 construct: The pET-21b(+) vector containing XIAP (252–350) Bir3 domain with a C-terminal His Tag; His tag (C); made in house; host or cells: E. coli BL21 Star (DE3)
T1 sequence (P98170 252-350): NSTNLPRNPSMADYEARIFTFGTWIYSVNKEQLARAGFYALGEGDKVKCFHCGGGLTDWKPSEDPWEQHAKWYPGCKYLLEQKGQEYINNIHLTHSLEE
Experimental: Fluorescence anisotropy was used to characterize the interaction between ARTS CTD and the Bir3 subunit of XIAP. ARTS CTD (residues 248–274) was synthesized using standard Fmoc chemistry and labeled with fluorescein at its N-terminus. The Bir3 subunit of the XIAP (residues 252–350) was expressed with a His-tag at the C-terminus and purified (see materials and methods and Figure S1). The binding experiments were done in 20 mM Hepes buffer, pH 7.4, 45 mM NaCl, at 10°C. Bir3 was titrated into fl-ARTS CTD and the data were fit to 1∶1 binding model resulting in K d = 8.0±0.7 µM (Figure 4A).
The pET-21b(+) vector containing XIAP (252–350) Bir3 domain with a C-terminal His Tag was transformed into E. coli strain BL21 Star^+ (DE3) (Novagen). Cells were grown at 37°C in LB medium to an optical density (600 nm) of ∼0.6 and induced with 0.4 mM isopropyl-β-D-1-thiogalactoside (IPTG). Cells were harvested after 8 h of incubation at 37°C and were lysed by Microfluidizer (Microfluidics). The protein was purified on HiTrap nickel-Sepharose FF column (100×10 mm, GE Healthcare), using an FPLC system (ÁKTA explorer, Amersham Biosciences). The eluted protein was further purified by filtration on a Sephacryl S100 column (950×26 mm; Amersham Biosciences). The protein was stored in 20 mM Hepes pH 7.4, 50 mM NaCl, 10 mM βME, 0.02% sodium azide and was dialyzed before experimental use.
Measurements were performed at 10°C by using a PerkinElmer LS-50b luminescence spectrofluorimeter equipped with a Hamilton microlabM dispenser as described in [44]. The fluorescently labeled peptide concentrations were determined by using a UV spectrophotometer (Shimadzu, Kyoto, Japan). The fluorescein-labeled ARTS derived peptides were dissolved in 20 mM Hepes buffer, pH 7.4 and 45 mM NaCl. 1 ml of the labeled peptide solution was placed in a cuvette, and the non-labeled Bir3 (200 µl, 150 µM) was placed in the dispenser. Additions of 5 µl were titrated at 90 sec intervals, the solution was stirred for 15 sec, and the fluorescence and anisotropy were measured after each addition by using an excitation wavelength of 480 nm and an emission wavelength of 530 nm. Dissociation constants (K d) were calculated by fitting the fluorescence titration curves (corrected for dilution) or fluorescence anisotropy curves to 1∶1 binding model using KALEIDAGRAPH (Synergy Software, Reading, PA). The following equation was used for the single-site model of the fluorescence results: [drawing 1] Where, F0 is the initial fluorescence, ΔF is the amplitude of the fluorescence change from unbound and bound states, K d is the dissociation constant and [Bir3] is the added concentration of Bir3 domain. A similar equation was used to fit the anisotropy results by replacing the fluorescence (F) with anisotropy (R) changes.

[3] = target: T1, Bir3 subunit of the XIAP (residues 252–350); test: Fluorescence spectroscopy binding of dimeric fl-ARTS 266–274 to Bir3 (Hill equation fit); conditions: fluorescence titration with Bir3; 20 mM Hepes pH 7.4, 45 mM NaCl, 10°C; Hill model, apparent averaged Kd; read-out: K d of dimeric peptide, fit to the Hill equation
Experimental: The importance of Cys273 residue for Bir3 binding raised the question of whether disulfide bond formation is involved in the interaction with Bir3. Addition of a reducing agent weakened the interaction between the ARTS derived peptides and Bir3 (Figure 4A). This raised the possibility that a disulfide bond is formed between two ARTS peptide molecules to form an active dimer. To test this, a covalent dimer of ARTS 266–274 was prepared by forming a disulfide bond between the Cys273 residues of two peptide monomers. MS gave a single peak corresponding the mass of the dimer (data not shown). […] Changes in the chemical shift of the sequentially following His274 and preceding Gln272 were also observed. Binding of Bir3 to the dimeric fl-ARTS 266–274 was studied using fluorescence spectroscopy (Fig. 6C). […]
Measurements were performed at 10°C by using a PerkinElmer LS-50b luminescence spectrofluorimeter equipped with a Hamilton microlabM dispenser as described in [44]. The fluorescently labeled peptide concentrations were determined by using a UV spectrophotometer (Shimadzu, Kyoto, Japan). […] Additions of 5 µl were titrated at 90 sec intervals, the solution was stirred for 15 sec, and the fluorescence and anisotropy were measured after each addition by using an excitation wavelength of 480 nm and an emission wavelength of 530 nm. […]

[4] = target: T2, Bir3 domain of XIAP (residues 252-350) with a C-terminal His tag (UniProt P98170 252-350); test: fluorescence polarisation; non-labeled Bir3 (200 µl, 150 µM) titrated in 5 µl additions into 1 ml of fluorescein-labeled peptide; 20 mM Hepes pH 7.4, 45 mM NaCl, 10°C; fit to 1:1 binding model; conditions: both partners purified
T2 construct: Stored with 10 mM beta-mercaptoethanol and dialysed before experimental use; also called Bir3 subunit of XIAP; XIAP (252-350); source: E. coli BL21 Star (DE3), purified (nickel-Sepharose, Sephacryl S100 gel filtration)
T2 sequence (P98170 252-350): as above

[5] = target: T2, Bir3 domain of XIAP (residues 252-350) …; test: NMR titration; TOCSY spectra of free and Bir3-bound ARTS CTD compared; peptide 0.5-1.5 mM, 20 mM deuterated Hepes, 45 mM potassium chloride, pH 6.8, 12°C; conditions: both partners purified
[6] = target: the molecule itself; test: SEC; analytical gel filtration of ARTS CTD 248-274 (1-2 mM) without DTT; 20 mM Hepes pH 7.4, 50 mM NaCl, 4°C; peaks identified by mass spectrometry; monomer to dimer
[7] = target: T2, Bir3 domain of XIAP (residues 252-350) …; test: fluorescence polarisation; non-labeled Bir3 (200 µl, 150 µM) titrated in 5 µl additions into 1 ml of fluorescein-labeled peptide; 20 mM Hepes pH 7.4, 45 mM NaCl, 10°C; fit to 1:1 binding model; conditions: both partners purified; remark: listed apart in the source

- K d (µM), binding affinity to Bir3 [2]: nb
- K d (µM), binding affinity to Bir3 ([2]; listed as Cys273A): did not bind
Molecule: QEHQGQGAH [fl-ARTS 266–274 C273A, alanine-scan analogue of fl-ARTS 266–274]

- K d (µM), binding affinity to Bir3 [2]: nb
- K d (µM), binding affinity to Bir3 ([2]; listed as ARTS 266–274 H268A): did not bind
Molecule: QEAQGQGCH [fl-ARTS 266–274 H268A, alanine-scan analogue of fl-ARTS 266–274]

- Kd [4]: 800 ± 300 nM
B1: fl-ARTS 266-274 H274A (peptide)
peptide: {5'/6'‑carboxyfluorescein}-QEHQGQGCA
notes: numbers count on: ARTS/Sept4_i2 (GenBank AAG45673.1); source: synthetic peptide

- Kd [4]: 1300 ± 200 nM
B2: fl-ARTS 266-274 Q271A (peptide)
peptide: {5'/6'‑carboxyfluorescein}-QEHQGAGCH
notes: as for B1

- Kd [4]: 900 ± 100 nM
B3: fl-ARTS 266-274 Q266A (peptide)
peptide: {5'/6'‑carboxyfluorescein}-AEHQGQGCH
notes: as for B1

- Kd [4]: 3600 ± 800 nM
B5: fl-ARTS 266-274 E267A (peptide)
peptide: {5'/6'‑carboxyfluorescein}-QAHQGQGCH
notes: as for B1

- Kd [4]: 1000 ± 300 nM
B7: fl-ARTS 266-274 Q269A (peptide)
peptide: {5'/6'‑carboxyfluorescein}-QEHAGQGCH
notes: as for B1

- Kd [4]: 2500 ± 300 nM
- Kd [7]: 2900 ± 300 nM
B8: fl-ARTS 266-274 (peptide)
peptide: {5'/6'‑carboxyfluorescein}-QEHQGQGCH
notes: numbers count on: ARTS/Sept4_i2 (GenBank AAG45673.1); also called ARTS 266-274 monomer; source: synthetic peptide

The next lines start with the molecule.

Molecule: Bir3 domain of XIAP (residues 252-350) with a C-terminal His tag (from UniProt P98170 252-350) (domain or fragment)
- Kd [1]: 2400 nM

Molecule: NC(=O)CC[C@H](NC(=O)CNC(=O)[C@H](CCC(N)=O)NC(=O)[C@H](Cc1c[nH]cn1)NC(=O)[C@H](CCC(=O)O)NC(=O)[C@H](CCC(N)=O)NC(=O)c1ccc2c(c1)C(=O)OC21c2ccc(O)cc2Oc2cc(O)ccc21)C(=O)NCC(=O)N[C@@H](CSSC[C@H](NC(=O)CNC(=O)[C@H](CCC(N)=O)NC(=O)CNC(=O)[C@H](CCC(N)=O)NC(=O)[C@H](Cc1c[nH]cn1)NC(=O)[C@H](CCC(=O)O)NC(=O)[C@H](CCC(N)=O)NC(=O)c1ccc2c(c1)C(=O)OC21c2ccc(O)cc2Oc2cc(O)ccc21)C(=O)N[C@@H](Cc1c[nH]cn1)C(=O)O)C(=O)N[C@@H](Cc1c[nH]cn1)C(=O)O [Dimer fl-ARTS 266–274] (I: 5FAM-QEHQGQGCH-OH / II: 5FAM-QEHQGQGCH-OH; disulfide I:8-II:8)
- Kd [3]: 2400 ± 100 nM

Molecule: YGPSLRLLA [fl-ARTS 248–256, fluorescein-labeled peptide of ARTS residues 248–256]
- K d (µM), binding affinity to Bir3 [2]: nb
- K d (µM), binding affinity to Bir3 ([2]; listed as ARTS 248–256): did not

Molecule: PPGAVKGTG [fl-ARTS 257–265, fluorescein-labeled peptide of ARTS residues 257–265]
- K d (µM), binding affinity to Bir3 [2]: nb
- K d (µM), binding affinity to Bir3 ([2]; listed as ARTS 257–265): did not

B4: fl-ARTS 248-274 (peptide)
peptide: {5(6)‑carboxyfluorescein}-YGPSLRLLAPPGAVKGTGQEHQGQGCH
notes: numbers count on: ARTS/Sept4_i2 (GenBank AAG45673.1); also called fl-ARTS CTD; fluorescein-labeled ARTS CTD 248-274; source: synthetic peptide
- Kd [4]: 8000 ± 700 nM

B6: ARTS CTD 248-274 (not labelled) (peptide)
peptide: YGPSLRLLAPPGAVKGTGQEHQGQGCH
notes: numbers count on: ARTS/Sept4_i2 (GenBank AAG45673.1); also called ARTS C-terminal domain; source: synthetic peptide
- binding result [5]: binds
- stoichiometry N [6]: 2
